Source: the supplement of paper PMC10201428
± gives the standard deviation of the averaged measurements.

Test system: VchCAST RNA-guided transposition machinery (E. coli BL21(DE3) host, lacZ target)
Test: relative integration efficiency (T-LR orientation) vs wild-type transposon end (log2 (normalized fold change)); transposon end mutated: left end; higher = more efficient transposition
Method: (§1)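 Pooled, barcoded VchCAST (Tn6677) mini-transposon donor libraries; each variable transposon-end sequence sits in a fixed pDonor mini-transposon context (10-bp barcode and cargo not included). Left- or right-end libraries were co-transformed with pEffector (TniQ-Cascade, TnsABC, lacZ crRNA, T7, 0.1 mM IPTG) into E. coli BL21(DE3) and grown 18 h at 37 C. T-LR and T-RL junction amplicons were sequenced; output/input barcode fold change was normalised to the mean of four wild-type barcodes and log2-transformed. Two biological replicates; zero-count/undetected variants carry floor values (-10 / -15), censored here. Barcode uncoupling by PCR recombination adds noise.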

Sequence | relative integration efficiency (log2)
AATGTTGTTGATGCAACCATAAAGTGATATTTAAGCCGGCGGGCGCCGACTACCAGGCCAACACCCCACCAACGCGCGGTCGCGAGACACCCCACCAACGCCTGGTCGCGGGGGTGTCCGATCTGATTTCAGCAAAACTACTGCAGTAAGAA | -5.38 ± 1
AATGTTGTTGATGCAACCATAAAGTGATATTTAATAATCAACCATAAAGTGATATTTAACTTAACCACAACCATATATTGATATCTCACAAAACAACCATAAGTTGATATTTTTGTGAATCGAGTATTTCAGCAAAACTACTGCAGTAAGAA | -4.25 ± 0.83
AATGTTGTTGATGCAACCATAAAGTGATATTTAATAATTATTTATAATCAGCAACTTAACCACAACCATATATTGATATCTCACAAAACAACCATAAGTTGATATTTTCAAAATGTGAATCGAGTATTTCAGCAAAACTACTGCAGTAAGAA | -2.53 ± 1.4
AATGTTGTTGATGCCCAACGCCCTGTCGCGGGCCGCCGGCGGGCGCCGACTACCAGGCCAACACCCCACCAACGCGCGGTCGCGAGACACCCCACCAACGCCTGGTCGCGGGGGTGTCCGATCTGATTTCAGCAAAACTACTGCAGTAAGAA | < -10
AATGTTGTTGATGCAACCATAAAGTGATATTTAATAATTATTTATAATCAGCACAACCATATATTGATATCTCACAAAACAACCATAAGTTGATATTTTTGTGAATCGAGTATTTCAGCAAAACTACTGCAGTAAGAAAGTTACTTCGTGGT | -4.94 ± 0.63
AATGTTGTTGATGTAATTATCATTTTATGGTTGATAATTATTTATAATCAGCAACTTAACCACAAAATAATTATCATTTTATGGTTGACAAAACAACCATAAAATGATAATTATGTGAATCGAGTATTTCAGCAAAACTACTGCAGTAAGAA | < -10
AATGTTGTTGATGCAACCATAAAGTGCGCGGGCCGCCGGCGGGCGCCGACTACCAGGCCAACACCCCACCAACGCGCGGTCGCGAGACACCCCACCAACGCCTGGTCGCGGGGGTGTCCGATCTGATTTCAGCAAAACTACTGCAGTAAGAA | < -10
AATGTTGTTGATGACCAACGCCTGGTCGCGGGGATAATTATTTATAATCAGCAACTTAACCACAAAACAACCATATATTGATATCTCACAAAAACCAACGCCCTGTCGCGGGCTGTGAATCGAGTATTTCAGCAAAACTACTGCAGTAAGAA | < -10
AATGTTGTTGATGCAACCATAAAGTGATATTTGCTAGCATTATACCTAGGACTGAGCTAGCTGTCAACAACCATATATTGATATCTCACAAAACAACCATAAGTTGATATTTTTGTGAATCGAGTATTTCAGCAAAACTACTGCAGTAAGAA | < -10
AATGTTGTTGATGCACAACGCCCTGTCGCGGGCCGCCGGCGGGCGCCGACTACCAGGCCAACACCCCACCAACGCGCGGTCGCGAGACACCCCACCAACGCCTGGTCGCGGGGGTGTCCGATCTGATTTCAGCAAAACTACTGCAGTAAGAA | < -10
AATGTTGTTGATGCAACCATAAATGTCGCGGGCCGCCGGCGGGCGCCGACTACCAGGCCAACACCCCACCAACGCGCGGTCGCGAGACACCCCACCAACGCCTGGTCGCGGGGGTGTCCGATCTGATTTCAGCAAAACTACTGCAGTAAGAA | < -10
AATGTTGTTGATGCAACCAGCCCTTGATATTTAATAATTATTTATAATCAGCAACTTAACCACAAAACAACCAGCGCGTGATATCTCACAAAACAACCAGCCTGTGATATTTTTGTGAATCGAGTATTTCAGCAAAACTACTGCAGTAAGAA | < -10
AATGTTGTTGATGACCAACGCCCTGTCGCGGGCCGCCGGCGGGCGCCGACTACCAGGCCAACACCCCACCAACGCGCGGTCGCGAGACACCCCACCAACGCCTGGTCGCGGGGGTGTCCGATCTGATTTCAGCAAAACTACTGCAGTAAGAA | < -10
AATGTTGTTGATGCAACCATAAAGTTCGCGGGCCGCCGGCGGGCGCCGACTACCAGGCCAACACCCCACCAACGCGCGGTCGCGAGACACCCCACCAACGCCTGGTCGCGGGGGTGTCCGATCTGATTTCAGCAAAACTACTGCAGTAAGAA | < -10
AATGTTGTTGATGTAATTATCATTTTATGGTTGATAATTATTTATAATCAGCAACTTAACCACAAAACAACCATAAAATGATAATTAACAAAACAACCATAAAATGATAATTATGTGAATCGAGTATTTCAGCAAAACTACTGCAGTAAGAA | < -10
AATGTTGTTGATGCAACCATAAAGTGATATTTAATAATTATTCAACCATATATTGATATCTCACAAAACAACCATAAGTTGATATTTTTGTGAATCGAGTATTTCAGCAAAACTACTGCAGTAAGAAAGTTACTTCGTGGTATGGGAGGATC | -5.27 ± 0.11
AATGTTGTTGATGCAACCATACCTGTATATTTAATAATTATTTATAATCAGCAACTTAACCACAAAACAACCATAGCGGTATATCTCACAAAACAACCATACTGGTATATTTTTGTGAATCGAGTATTTCAGCAAAACTACTGCAGTAAGAA | < -10

Test system: VchCAST RNA-guided transposition machinery (E. coli BL21(DE3) host, lacZ target)
Test: relative integration efficiency (T-RL orientation) vs wild-type transposon end (log2 (normalized fold change)); transposon end mutated: left end; higher = more efficient transposition
Method: as §1

Sequence | relative integration efficiency (log2)
AATGTTGTTGATGCAACCATAAAGTGATATTTAAGCCGGCGGGCGCCGACTACCAGGCCAACACCCCACCAACGCGCGGTCGCGAGACACCCCACCAACGCCTGGTCGCGGGGGTGTCCGATCTGATTTCAGCAAAACTACTGCAGTAAGAA | -6.95 ± 1.1
AATGTTGTTGATGCAACCATAAAGTGATATTTAATAATCAACCATAAAGTGATATTTAACTTAACCACAACCATATATTGATATCTCACAAAACAACCATAAGTTGATATTTTTGTGAATCGAGTATTTCAGCAAAACTACTGCAGTAAGAA | -2.68 ± 0.72
AATGTTGTTGATGCAACCATAAAGTGATATTTAATAATTATTTATAATCAGCAACTTAACCACAACCATATATTGATATCTCACAAAACAACCATAAGTTGATATTTTCAAAATGTGAATCGAGTATTTCAGCAAAACTACTGCAGTAAGAA | -5.07 ± 0.94
AATGTTGTCAACCATAAAGTGATATTTAATAATTATTTATAATCAGCAACTTAACCACAAAACAACCATATATTGATATCTCACAAAACAACCATAAGTTGATATTTTTGTGAATCGAGTATTTCAGCAAAACTACTGCAGTAAGAAAGTTA | -8.1 ± 1.2
AATGTTGTTGATGCAACCATAAAGTGATATTTAATAATTATTTATAATCAGCAAAGGCCAACACCCCACCAACGCGCGGTCGCGAGACACCCCACCAACGCCTGGTCGCGGGGGTGTCCGATCTGATTTCAGCAAAACTACTGCAGTAAGAA | -6.56 ± 1.3
AATGTTGTTGATGCAACCATAAAGTGATATTTAATAATTATTTATAATCAGCAACTTAACCACAACCATATATTGATATCTCACAAAACAACCATAAGTTGATATTTTTGTGAATCGAGTATTTCAGCAAAACTACTGCAGTAAGAAAGTTA | -5.27 ± 0.97
AATGTTGTTGATGCAACCATAAAGTGATATTTAATAATTATTTATAATCAGCAACTCAACCATATATTGATATCTCTAACCACAAAAACAAAACAACCATAAGTTGATATTTTTGTGAATCGAGTATTTCAGCAAAACTACTGCAGTAAGAA | -4.84 ± 0.92
AATGTTGTTGATGCAACCATAAAGTGATATTTATACCGTTCGTATACGATACATTATACGAAGTTATCAACCATATATTGATATCTCACAAAACAACCATAAGTTGATATTTTTGTGAATCGAGTATTTCAGCAAAACTACTGCAGTAAGAA | -4.08 ± 1.3
AATGTTGTTGATGCAACCATAAAGTGATATTATAATTATTTATAATCAGCAACTTAACCACAAAACAACCATATATTGATATCTCACAAAACAACCATAAGTTGATATTTTTGTGAATCGAGTATTTCAGCAAAACTACTGCAGTAAGAAAG | -5.22 ± 1.1
AATGTTGTTGATGCAACCATAAAGTGATATTTAATAATTATTTATAATCAGCAACTTAACCACCAACCATATATTGATATCTCAAAAACAAAACAACCATAAGTTGATATTTTTGTGAATCGAGTATTTCAGCAAAACTACTGCAGTAAGAA | -2.83 ± 0.93
AATGTTGTTGATGCAACCATAAAGTGATATTTAATAATTATTTATAATCAGCAACAACCATATATTGATATCTCACAAAACAACCATAAGTTGATATTTTTGTGAATCGAGTATTTCAGCAAAACTACTGCAGTAAGAAAGTTACTTCGTGG | -7.72 ± 1.1
AATGTTGTTGATGCAACCATAAAGTGATATTTAATAATTATTTATAATCAGCCAACCATATATTGATATCTCACAAAACAACCATAAGTTGATATTTTAACTTAACCACAAAATGTGAATCGAGTATTTCAGCAAAACTACTGCAGTAAGAA | -6.91 ± 2.5
AATGTTGTTGATGCAACCATAAAGTGATATTTATATTCTAAATGTTGATTAATTTGAATCATCATCTCAACCATATATTGATATCTCACAAAACAACCATAAGTTGATATTTTTGTGAATCGAGTATTTCAGCAAAACTACTGCAGTAAGAA | -5.04 ± 1
